According to patent US10533044B2, “Integrin Antagonists” (The General Hospital Corporation, priority 2014, dated 2020):
No end group written: not given here.

Columns and labels:
[1] = system: model tumor growth and angiogenesis; conditions: in vivo; cited from earlier work
αVβ3 [2] = target: T1, αVβ3 (Homo sapiens, UniProt P05106+P06756); assay: AP5 epitope expression on K562-αVβ3 cells preincubated with knottin-Fc; type: cell-based; conditions: Ca2+ and Mg2+ 1 mM each
T1 construct: expressed in transfected cells
Protocol: Cells were washed, resuspended, fixed in 4% paraformaldehyde, and analyzed using FACSCalibur or BD-LSRII flow cytometers (BD Biosciences). Binding of soluble knottin dimers to αVβ3-K562 cells was expressed as mean fluorescence intensity (MFI), as determined using FlowJo software. […] Alexa647-labeled mAb AP5 Fab (10 μg/ml) was added, and cells incubated for an additional 30 min before washing. APC-labeled goat anti-mouse Fc-specific antibody was added to anti-LIBS-1- or anti-LIBS-6-bound M21 cells for an additional 30 min at 4° C. Cells were then washed, resuspended, fixed in 4% paraformaldehyde and analyzed by flow cytometry. AP5 epitope expression was measured and expressed as MFI.
Cells were washed, resuspended, fixed in 4% paraformaldehyde, and analyzed using FACSCalibur or BD-LSRII flow cytometers (BD Biosciences). Binding of soluble knottin dimers to αVβ3-K562 cells was expressed as mean fluorescence intensity (MFI), as determined using FlowJo software. […] APC-labeled goat anti-mouse Fe-specific antibody was added to anti-LIBS-1- or anti-LIBS-6-bound M21 cells for an additional 30 min at 4° C. Cells were then washed, resuspended, fixed in 4% paraformaldehyde and analyzed by flow cytometry. AP5 epitope expression was measured and expressed as MFI.

αVβ3 [3] = target: T1, αVβ3; assay: Binding of knottin-Fc fusion proteins to K562-αVβ3 cells (FACS); conditions: Fc fusion in culture supernatant; Ca2+ and Mg2+ 1 mM each
Source text: The wild type and modified versions were transiently expressed in HEK293 cells grown in 3% FBS. Culture supernatant contained equivalent amounts of the respective fusion proteins (verified by ELISA) and of the correct size (using western blotting with anti-his tag antibody). Binding of each to K562 cells expressing recombinant αVβ3 (K562-αVβ3) was examined using FACS as described in the methods section of the above-referenced paper, except that the unlabeled bound knottin was detected by adding fluorescienated anti-human Fc mAb.
Wild type and P/W substituted forms of knottin 2.5 F were expressed as Fc fusion proteins in mammalian cells and their abilities to bind cellular αVβ3 and to express the LIBS mAb AP5 were compared. αVβ3-K562 (1×10^6) cells were suspended in 100 μl of culture supernatant containing equivalent amounts (based on ELISA) of WT knottin 2.5 F-Fc fusion protein, knottin 2.5 F (P/W)-Fc, WT knottin 2.5 D-Fc, or knottin 2.5 F (A/W)-Fc or medium alone and incubated for 30 min; 25° C., washed in 400 μl buffer and fluoresceinated anti-FC-specific antibody added for an additional 30 min at 4° C. Cells were washed, resuspended, fixed in 4% paraformaldehyde, and analyzed using FACSCalibur or BD-LSRII flow cytometers (BD Biosciences). Binding of soluble knottin dimers to αVβ3-K562 cells was expressed as mean fluorescence intensity (MFI), as determined using FlowJo software. […]

K562-αVβ3 cells = assay: Mn2+-induced spreading of K562-αVβ3 cells on immobilized FN forms; type: cell-based, human; conditions: 1 mM Mn2+
Protocol: The various FN-coated surfaces were washed with PBS, and blocked with bovine serum albumin (5% w/v in PBS; lh; 25° C.). K562-αVβ3 cells (5×10^4) were added (in TBS; 1 mM Mn^2+), in the absence or presence of LM609 mAb (10 μg/ml, added 15 min prior to plating). Cells were incubated (2 h; 37° C.), washed three times in warm TBS and fixed with 4% formaldehyde (in PBS; 25° C.; 10 min). Images were captured using an inverted phase microscope (Zeiss Axiovert 40CFL) fitted with a powershot G12 Cannon Camera. ImageJ 1.48a software (National Institutes of Health, USA) was used to quantify cell spreading of 300-400 random selected cells. Spread cells were clearly distinguishable from round, refringent non-spread cells. Representative phase contrast images were collected using Zeiss Axiovert 35 inverted microscope using a CCD camera and Spot software (Diagnostics Instruments). Adhesion of transiently transfected HEK293 expressing equivalent amounts of αVβ3(N339/S) or αV(N266/Q)β3(N339/S) was done by adding cells (3×10^4) in TBS containing Ca^2+/Mg^2+ and 0.1% BSA (w/v) to FN-coated surfaces (45 min; 25° C.). Non-adherent cells were removed by washing and adherent cells fixed (2% paraformaldehyde; 30 min; 25° C.), stained (0.1% Crystal Violet; 30 min; 25° C.), washed with water, air dried and then solubilized (1% SDS). Relative cell attachment was estimated by absorbance of the lysates at 540 nm measured using a SpectraMax M2E microplate reader (Molecular Devices, Sunnyvale, Calif.).

αVβ3 ectodomain = target: T2, αVβ3 ectodomain (Homo sapiens, UniProt P05106+P06756); assay: Hydrodynamic shift assay (molecular sieve chromatography, Stokes radius); conditions: in Mn2+ (6.3 nm without ligand)
T2 construct: αVβ3 ectodomain was incubated alone or with FN10; made in house; host or cells: insect cells
Protocol: αVβ3 ectodomain was incubated alone or with FN10 (at 2:1 FN10/integrin molar ratio) in 145 mM NaCl and 25 mM Tris-HCl, pH 7.4 (TBS) containing Ca^2+, Ca^2+/Mg^2+ or Mn^2+ (20° C.; 1.5 h). Aliquots were taken and chromatographed at room temperature at this time point on a precalibrated Superdex S-200 GL column equilibrated buffer with the same metal ion composition used during the incubation, and Stokes radii were derived as described previously (Xiong, J. P. et al. The Journal of Cell Biology 186, 589-600 (2009)). The elution profiles resolved by molecular sieve chromatography were monitored in-line by UV adsorption at 280 nm. Unliganded ±FN10-treated αVβ3 species were resolved as single discrete symmetrical peaks. Excess FN10 served as an internal standard. Identity of resolved peaks was formally confirmed by SDS-PAGE.

αVβ3(N339/S) = target: T3, αVβ3(N339/S) (Homo sapiens, UniProt P05106+P06756, N365S); assay: Binding of fluoresceinated FN10 to WT αVβ3 or αVβ3(N339/S) expressed on HEK293T cells
T3 construct: pcDNA3 plasmids encoding full-length WT αVβ3, αVβ3(Y122/A), αVβ3(N339/S); expressed in transfected cells; host or cells: HEK293T (transient)
Protocol: The human erythroleukemia cell line K562 stably expressing recombinant αVβ3 (K562-αVβ3) and the human melanoma cell line M21, which constitutively expresses αVβ3, have been previously described (Xiong, J. P. et al. The Journal of Cell Biology 186, 589-600 (2009); and Mitjans, F. et al. J Cell Sci 108 (Pt 8), 2825-2838 (1995)). Cells were maintained in Iscove's modified Dulbecco's medium (K562-αVβ3) or RPMI1640 (M21), supplemented with 10% fetal calf serum, 2 mM L-glutamine, penicillin and streptomycin, plus G418 (0.5-1.0 mg/ml) in cultured K562-αVβ3. HEK293T (ATCC) were transiently co-transfected with pcDNA3 plasmids encoding full-length WT αVβ3, αVβ3(Y122/A), αVβ3(N339/S), or αV(N266/Q)β3(N339/S) using Lipofectamine 2000 reagent (Invitrogen) according to the manufacturer's protocol.
In cellular and biochemical assays where calcium, magnesium or manganese ions were used, they were each at final concentrations of 1 mM. […] Binding of soluble FN10 to αVβ3^+ cells was expressed as mean fluorescence intensity (MR), as determined using the CellQuest software (BD). […] Mean and SD from independent experiments were calculated, and compared using Student's t test.

αVβ5 = αVβ5 (Homo sapiens, UniProt P06756+P18084); conditions: Moore et al, 2013; cited from earlier work
α5β1 = α5β1 (Homo sapiens, UniProt P05556+P08648); conditions: Moore et al, 2013; cited from earlier work
αVβ3 [4] = target: T1, αVβ3; assay: Binding of fluoresceinated fluid-phase FN10 to K562-αVβ3 cells (flow cytometry); conditions: 1 mM Ca2+/Mg2+; fold over background
Protocol: In cellular and biochemical assays where calcium, magnesium or manganese ions were used, they were each at final concentrations of 1 mM. Cells stably (K562) or transiently (I-fEK293T) expressing WT or mutant forms of αVβ3 were preincubated (30 min; 0° C.) in the dark with Alexa647-conjugated AP3 (10 μg/ml), washed in Hepes-buffered saline (20 mM Hepes, 150 mM NaCl, pH 7.4) containing BSA (0.1% w/v; washing buffer, WB), incubated in 10 mM EDTA in WB (5 min; 25° C.), then washed three times in WB. […] Binding of soluble FN10 to αVβ3^+ cells was expressed as mean fluorescence intensity (MR), as determined using the CellQuest software (BD). Binding of soluble FN10 to HEK293T was normalized by dividing its MFI by the MFI of Alexa647-conjugated AP3 to the same cells and multiplying by 100. Mean and SD from independent experiments were calculated, and compared using Student's t test.

αIIbβ3^N/S = target: T4, αIIbβ3^N/S (Homo sapiens, UniProt P05106+P08514, N365S); assay: Binding of fluorescein-tagged hFN10-G to preactivated cellular αIIbβ3(N/S); conditions: N339 to S activation
T4 construct: expressed in transfected cells
Source text: (§1) FIG. 9. […] (A) Superposed RGD-containing loops of hFN10 (gray in original), hFN10-G (pink in original) onto the RGD loop of frog γC (green in original). Sphere represents the metal ion at MIDAS.

αVβ3^N/S = αVβ3^N/S (Homo sapiens, UniProt P05106+P06756, N365S); assay: Binding of fluorescein-tagged hFN10-G to preactivated cellular αVβ3(N/S); design: pcDNA3 plasmids encoding full-length WT αVβ3, αVβ3(Y122/A), αVβ3(N339/S); expressed in transfected cells; host or cells: HEK293T (transient); conditions: N339 to S activation
Source text: as §1

T1 sequence (P06756 31-889 limits assumed): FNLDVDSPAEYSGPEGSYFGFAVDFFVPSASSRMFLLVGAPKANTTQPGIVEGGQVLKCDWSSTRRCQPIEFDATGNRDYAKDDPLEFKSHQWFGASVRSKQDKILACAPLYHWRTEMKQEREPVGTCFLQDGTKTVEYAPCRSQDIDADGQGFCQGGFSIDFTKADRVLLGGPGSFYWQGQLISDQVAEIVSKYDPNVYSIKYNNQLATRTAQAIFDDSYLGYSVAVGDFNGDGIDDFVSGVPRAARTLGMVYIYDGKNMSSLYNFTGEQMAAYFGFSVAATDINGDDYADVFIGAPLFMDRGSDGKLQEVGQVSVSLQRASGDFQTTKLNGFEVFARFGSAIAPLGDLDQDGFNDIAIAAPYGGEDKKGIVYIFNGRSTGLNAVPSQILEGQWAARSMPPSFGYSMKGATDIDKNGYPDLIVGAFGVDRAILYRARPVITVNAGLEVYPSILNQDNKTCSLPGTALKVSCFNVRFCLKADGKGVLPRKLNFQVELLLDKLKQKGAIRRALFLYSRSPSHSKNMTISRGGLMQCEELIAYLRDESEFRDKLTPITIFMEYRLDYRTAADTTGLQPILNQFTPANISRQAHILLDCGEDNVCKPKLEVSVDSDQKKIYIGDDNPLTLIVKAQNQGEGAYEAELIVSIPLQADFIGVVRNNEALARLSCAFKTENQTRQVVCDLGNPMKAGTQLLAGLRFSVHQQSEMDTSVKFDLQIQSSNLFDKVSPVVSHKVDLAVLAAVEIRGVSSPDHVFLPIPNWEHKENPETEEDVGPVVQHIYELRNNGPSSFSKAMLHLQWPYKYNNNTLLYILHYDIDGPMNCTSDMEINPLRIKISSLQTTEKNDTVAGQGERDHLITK
T1 sequence (P06756 891-1048 partner limits assumed): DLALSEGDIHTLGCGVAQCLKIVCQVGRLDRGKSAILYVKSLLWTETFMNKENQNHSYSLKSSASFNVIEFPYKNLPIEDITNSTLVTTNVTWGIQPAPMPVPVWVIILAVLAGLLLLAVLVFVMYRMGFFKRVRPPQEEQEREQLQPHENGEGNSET
T1 sequence (P05106 27-788): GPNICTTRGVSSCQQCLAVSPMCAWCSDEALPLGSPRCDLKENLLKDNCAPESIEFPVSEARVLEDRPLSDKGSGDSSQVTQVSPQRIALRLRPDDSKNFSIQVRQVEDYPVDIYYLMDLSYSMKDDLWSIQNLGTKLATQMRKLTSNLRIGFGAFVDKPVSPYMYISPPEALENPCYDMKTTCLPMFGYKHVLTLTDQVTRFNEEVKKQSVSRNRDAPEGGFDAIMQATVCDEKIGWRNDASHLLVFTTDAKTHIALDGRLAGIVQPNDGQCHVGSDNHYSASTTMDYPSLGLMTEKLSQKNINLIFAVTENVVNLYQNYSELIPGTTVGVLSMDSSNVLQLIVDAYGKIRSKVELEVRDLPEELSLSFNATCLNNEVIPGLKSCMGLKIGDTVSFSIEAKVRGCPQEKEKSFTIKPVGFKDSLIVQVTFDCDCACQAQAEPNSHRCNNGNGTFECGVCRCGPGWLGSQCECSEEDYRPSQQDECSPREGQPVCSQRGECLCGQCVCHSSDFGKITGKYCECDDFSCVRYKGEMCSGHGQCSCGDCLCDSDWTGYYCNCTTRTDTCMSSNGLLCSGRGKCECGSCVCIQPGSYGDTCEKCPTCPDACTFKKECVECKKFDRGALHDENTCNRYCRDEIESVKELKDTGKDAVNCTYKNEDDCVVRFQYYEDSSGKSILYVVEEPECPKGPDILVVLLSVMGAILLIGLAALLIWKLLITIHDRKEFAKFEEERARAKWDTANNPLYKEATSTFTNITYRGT
T2 sequence (P06756 31-987): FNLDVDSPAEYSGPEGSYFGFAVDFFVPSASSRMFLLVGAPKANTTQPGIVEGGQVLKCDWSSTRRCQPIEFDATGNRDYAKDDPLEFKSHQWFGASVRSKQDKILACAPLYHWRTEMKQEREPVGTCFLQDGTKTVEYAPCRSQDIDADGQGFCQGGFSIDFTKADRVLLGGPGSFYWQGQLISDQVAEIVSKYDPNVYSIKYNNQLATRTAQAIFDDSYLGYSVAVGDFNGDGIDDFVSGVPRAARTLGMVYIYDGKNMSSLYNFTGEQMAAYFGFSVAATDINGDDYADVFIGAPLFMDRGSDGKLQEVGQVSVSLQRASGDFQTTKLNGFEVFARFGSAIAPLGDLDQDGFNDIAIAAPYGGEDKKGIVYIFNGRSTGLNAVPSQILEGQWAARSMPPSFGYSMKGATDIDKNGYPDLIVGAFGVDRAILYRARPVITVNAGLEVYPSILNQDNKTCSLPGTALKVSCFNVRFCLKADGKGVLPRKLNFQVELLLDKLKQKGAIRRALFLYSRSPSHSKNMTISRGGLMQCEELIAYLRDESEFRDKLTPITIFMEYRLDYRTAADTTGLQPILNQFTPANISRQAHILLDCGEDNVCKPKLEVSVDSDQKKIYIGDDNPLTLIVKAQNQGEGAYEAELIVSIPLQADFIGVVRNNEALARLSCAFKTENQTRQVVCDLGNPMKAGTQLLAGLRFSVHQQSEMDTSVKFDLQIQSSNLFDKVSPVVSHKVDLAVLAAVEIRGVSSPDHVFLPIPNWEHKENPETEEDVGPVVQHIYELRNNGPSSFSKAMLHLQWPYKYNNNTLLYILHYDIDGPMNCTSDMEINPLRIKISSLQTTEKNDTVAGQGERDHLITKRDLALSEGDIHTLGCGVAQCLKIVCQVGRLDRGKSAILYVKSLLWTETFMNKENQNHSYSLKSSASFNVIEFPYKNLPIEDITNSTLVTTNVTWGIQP
T2 sequence (P05106 27-718): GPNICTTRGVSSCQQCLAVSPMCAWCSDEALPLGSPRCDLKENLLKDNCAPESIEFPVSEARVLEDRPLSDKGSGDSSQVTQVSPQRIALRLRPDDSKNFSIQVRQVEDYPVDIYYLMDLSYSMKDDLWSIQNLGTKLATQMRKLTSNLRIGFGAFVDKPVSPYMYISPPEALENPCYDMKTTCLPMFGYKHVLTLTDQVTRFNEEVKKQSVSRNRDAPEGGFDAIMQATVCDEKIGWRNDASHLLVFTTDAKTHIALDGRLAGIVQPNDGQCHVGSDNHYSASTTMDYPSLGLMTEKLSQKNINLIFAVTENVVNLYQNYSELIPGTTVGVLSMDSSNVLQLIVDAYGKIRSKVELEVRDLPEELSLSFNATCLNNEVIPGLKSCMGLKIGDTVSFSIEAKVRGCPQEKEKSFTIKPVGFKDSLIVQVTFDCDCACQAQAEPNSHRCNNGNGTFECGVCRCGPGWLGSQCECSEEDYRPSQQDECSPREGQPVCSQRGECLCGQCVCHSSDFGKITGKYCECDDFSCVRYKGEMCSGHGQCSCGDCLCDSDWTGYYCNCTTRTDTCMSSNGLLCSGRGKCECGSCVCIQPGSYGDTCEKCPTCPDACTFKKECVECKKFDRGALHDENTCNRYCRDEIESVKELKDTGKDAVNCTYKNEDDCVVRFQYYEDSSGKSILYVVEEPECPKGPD
T3 sequence (P06756 31-889 limits assumed): as the sequence (P06756 31-889 limits assumed) above
T3 sequence (P06756 891-1048 partner limits assumed): as the sequence (P06756 891-1048 partner limits assumed) above
T3 sequence (P05106 27-788 N365S): as the sequence (P05106 27-788) above, with N339S counted along it
αVβ3^N/S, sequence (P06756 31-889 limits assumed): as the sequence (P06756 31-889 limits assumed) above
αVβ3^N/S, sequence (P06756 891-1048 partner limits assumed): as the sequence (P06756 891-1048 partner limits assumed) above
αVβ3^N/S, sequence (P05106 27-788 N365S): as the sequence (P05106 27-788) above, with N339S counted along it
αVβ5, sequence (P06756 31-889 limits assumed): as the sequence (P06756 31-889 limits assumed) above
αVβ5, sequence (P06756 891-1048 partner limits assumed): as the sequence (P06756 891-1048 partner limits assumed) above
αVβ5, sequence (P18084 24-799): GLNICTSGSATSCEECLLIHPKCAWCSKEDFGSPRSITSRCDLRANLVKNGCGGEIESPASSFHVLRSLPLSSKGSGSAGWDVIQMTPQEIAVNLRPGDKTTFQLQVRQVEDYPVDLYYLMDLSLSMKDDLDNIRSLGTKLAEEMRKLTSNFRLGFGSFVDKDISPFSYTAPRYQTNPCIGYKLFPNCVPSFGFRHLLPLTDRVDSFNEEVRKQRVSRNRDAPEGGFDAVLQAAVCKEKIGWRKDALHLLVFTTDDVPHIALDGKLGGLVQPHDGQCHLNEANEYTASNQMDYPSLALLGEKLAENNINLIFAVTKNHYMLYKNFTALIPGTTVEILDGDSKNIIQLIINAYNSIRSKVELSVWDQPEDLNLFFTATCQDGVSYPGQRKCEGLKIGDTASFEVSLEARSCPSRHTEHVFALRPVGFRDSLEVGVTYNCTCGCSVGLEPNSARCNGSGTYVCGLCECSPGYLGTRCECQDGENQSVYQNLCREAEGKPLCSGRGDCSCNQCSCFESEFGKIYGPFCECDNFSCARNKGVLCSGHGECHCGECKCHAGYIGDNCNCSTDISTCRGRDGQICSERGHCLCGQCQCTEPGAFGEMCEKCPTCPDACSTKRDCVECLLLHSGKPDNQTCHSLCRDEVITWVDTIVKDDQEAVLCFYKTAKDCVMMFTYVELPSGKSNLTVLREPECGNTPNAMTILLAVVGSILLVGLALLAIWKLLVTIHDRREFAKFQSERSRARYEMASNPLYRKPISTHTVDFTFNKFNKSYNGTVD

## CC(C)[C@H]1C(=O)N[C@@H](CCCN=C(N)N)C(=O)NCC(=O)N[C@@H](CC(=O)O)C(=O)N[C@H](Cc2ccccc2)C(=O)N1C [cilengitide]
[1]
  Effect on model tumor growth and angiogenesis: paradoxically stimulated model tumor growth and angiogenesis

## P/W knottin 2.5 F: knottin 2.5 F with Proline 10 replaced by Trp, expressed as Fc fusion protein (GCPRPRGDNWPLTCSQDSDCLAGCVCGPNGFCG; disulfide (positions not given here); also: cystine-knot disulfide bonds, pairing not given here, Fc fusion protein)
αVβ3 [2]
  AP5 expression / integrin activation on K562-αVβ3: suppressed AP5 expression
αVβ3 [3]
  Binding to cellular αVβ3 (K562-αVβ3): equivalent

## full-length FN: full-length human plasma fibronectin from Sigma-Aldrich
K562-αVβ3 cells
  Spreading of K562-αVβ3 cells on immobilized ligand: extensive spreading

## hFN10: mutant high affinity form of the 10th type-III domain of fibronectin, loop PRGDWNEG, SEQ ID NO: 9
K562-αVβ3 cells
  Spreading of K562-αVβ3 cells on immobilized ligand: little spreading
αVβ3 ectodomain
  Stokes' radius (Rs) of αVβ3 complex: 6.3 nm
αVβ3(N339/S)
  Binding to WT αVβ3 versus active αVβ3(N339/S): similar

## knottin 2.5 F: cysteine-knot peptide, chemically synthesized, published sequence (Kimura et al 2009) (GCPRPRGDNPPLTCSQDSDCLAGCVCGPNGFCG)
αVβ5
  Binding to integrin αVβ5: binds
α5β1
  Binding to integrin α5β1: binds

## wtFN10: 10th type-III RGD-domain of wild-type human fibronectin, loop GRGDSPAS, SEQ ID NO: 20 [reference compound]
αVβ3 [4]
  Binding of fluoresceinated FN10 to K562-αVβ3: low background
K562-αVβ3 cells
  Spreading of K562-αVβ3 cells on immobilized ligand: extensive spreading
αVβ3 ectodomain
  Stokes' radius (Rs) of αVβ3 complex: 6.6 nm

B1: hFN10-G: hFN10 with a glycine inserted after proline 1492, SEQ ID NO: 29 (protein)
chain: SDVPRDLEVVAATPTSLLISWDAPAVTVRYYRITYGETGGNSPVQEFTVPGSKSTATISGLKPGVDYTITVYAVTPGRGDWNEGSKPISINY
αIIbβ3^N/S
  Binding to preactivated cellular αIIbβ3^N/S: some binding
αVβ3^N/S
  Binding to preactivated cellular αVβ3^N/S: did not bind
